Data set [1] addresses T1, Zif268 zinc fingers 1-3 (UniProt P08046 P08046:336-416). The experiment in a line: EMSA. Background: In EMSA bound probe runs differently from free probe, usually more slowly.
The target in data set [2] is T1, Zif268 zinc fingers 1-3. The experiment in a line: EMSA; 10 mM Hepes pH 7.9, 50 mM KCl, 0.5 mM EDTA, 30 C; apparent Kd.
Data set [3] deals with Oct-1 POU domain (POU-specific domain and homeodomain) (UniProt P14859 P14859:280-438). The description is as above.
The target of data set [4] is GST-ZFHD1 (Zif268 fingers 1-2, GGRR linker, Oct-1 homeodomain) (synthetic chimera (mouse Zif268 / human …, UniProt P08046;P14859 P08046:333-390,P14859:378-439)). The data set is described as above. The note with it: tags: N-terminal GST (pGEX2T).

The source of these data is patent US7008780, “Chimeric DNA-binding proteins” (Massachusetts Institute of Technology).

Sequence of Oct-1 POU domain (POU-specific domain and homeodomain) (P14859 280-438, one chain of several): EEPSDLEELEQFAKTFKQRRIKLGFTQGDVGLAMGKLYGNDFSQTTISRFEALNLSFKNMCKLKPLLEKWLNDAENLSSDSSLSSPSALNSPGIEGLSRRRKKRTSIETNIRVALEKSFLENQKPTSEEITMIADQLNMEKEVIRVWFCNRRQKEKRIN

B1: hybrid site probe TCATTATGGGCG (dsDNA)
DNA 1: CCTCGAGGTCATTATGGGCGCTAGGTACC
DNA 2: GGTACCTAGCGCCCATAATGACCTCGAGG
For B1, in the data set with Zif268 zinc fingers 1-3 [1], the binding result is recorded as “no binding”.

B2: Zif268 site probe (dsDNA)
DNA 1: CCTCGAGGCGCCCACGCCTAGGTACC
DNA 2: GGTACCTAGGCGTGGGCGCCTCGAGG
In the case of B2, the Kd with Zif268 zinc fingers 1-3 [2] turned out to be 0.33 nM.

B3: Oct-1 octamer site probe (dsDNA)
DNA 1: CCTCGAGGTCATTTGCATACTAGGTACC
DNA 2: GGTACCTAGTATGCAAATGACCTCGAGG
On to B3, for which the Kd in data set [3] turned out to be 0.18 nM.

B4: hybrid site probe TAATGATGGGCG (dsDNA)
DNA 1: CCTCGAGGCGCCCATCATTACTAGGTACC
DNA 2: GGTACCTAGTAATGATGGGCGCCTCGAGG
Consider B4, for which the Kd in data set [4] stood at 0.84 nM.
